Laboratory results reported in patent publication US20060234308.

Columns and labels:
[1] = system: T1, Cys-BAl-Pro-Lys-Asp-Pro-Ser-Gln-Arg-Arg-Arg-NH2
T1 sequence: CXPKDPSQRRR

[2] = system: T2, Cys-BAl-Pro-Leu-Ser-Arg-Thr-Leu-Ser-Val-Ala-Ala-Lys-Lys-NH2
T2 sequence: CXPLSRTLSVAAKK

[3] = system: T3, Cys-BAl-Lys-Lys-Arg-Phe-Ser-Phe-Lys-Lys-Ser-Phe-Lys-Leu-NH2
T3 sequence: CXKKRFSFKKSFKL

[4] = system: T4, Cys-BAl-Gln-Lys-Arg-Pro-Ser-Gln-Arg-Ser-Lys-Tyr-Leu-NH2
T4 sequence: CXQKRPSQRSKYL

[5] = system: T5, Cys-BAl-Ala-Lys-Arg-Arg-Arg-Leu-Ser-Ser-Leu-Arg-Ala-NH2
T5 sequence: CXAKRRRLSSLRA

[6] = system: other peptides not described as substrates for protein kinase C
[7] = system: T6, Arg-Arg-Ile-Ser-Lys-Asp-Asn-Pro-Asp-Tyr-Gln-Gln-Asp-BAl-Cys-NH2
T6 sequence: RRISKDNPDYQQDXC

[8] = system: T7, Cys-BAl-Gly-Arg-Thr-Gly-Arg-Arg-Asn-Ser-Ile-NH2
T7 sequence: CXGRTGRRNSI

[9] = system: T8, Leu-Arg-Arg-Ala-Ser-Leu-Gly-thioamide
T8 sequence: LRRASLG

[10] = system: T9, Cys-βAla-Leu-Arg-Arg-Ala-Ser-Leu-Gly-NH2
T9 sequence: CXLRRASLG

[11] = system: T10, Dpr(Aoa)-Leu-Arg-Arg-Ala-Ser-Leu-Gly-NH2
T10 sequence: LRRASLG

[12] = system: T11, Cys-BAl-Lys-Arg-Arg-Glu-Ile-Leu-Ser-Arg-Arg-Pro-Ser-Tyr-Arg-NH2
T11 sequence: CXKRREILSRRPSYR

[13] = system: 13-mer peptides of the scan through the myelin basic protein (MBP) from bos taurus

Substance	phosphorylation on peptide array (32P, PhosphorImager; higher signal in all three subarrays) [1]	phosphorylation on peptide array (32P, PhosphorImager; higher signal in all three subarrays) [2]	phosphorylation on peptide array (32P, PhosphorImager; higher signal in all three subarrays) [3]	phosphorylation on peptide array (32P, PhosphorImager; higher signal in all three subarrays) [4]	phosphorylation on peptide array (32P, PhosphorImager; higher signal in all three subarrays) [5]	phosphorylation on peptide array (32P, PhosphorImager; higher signal in all three subarrays) [6]	phosphorylation on peptide array (32P, PhosphorImager) [7]	phosphorylation on peptide array (32P, PhosphorImager; higher signal in all three subarrays) [8]	phosphorylation of 11760 spots on glass (32P, PhosphorImager; FIG. 6) [9]	phosphorylation on peptide array (32P, PhosphorImager; higher signal in all three subarrays) [10]	time course of 32P incorporation on modified glass (FIG. 3) [10]	phosphorylation of 960 spots on glass (32P, PhosphorImager; FIG. 7) [11]	phosphorylation on peptide array (32P, PhosphorImager; higher signal in all three subarrays) [12]	phosphorylation on MBP peptide scan array (32P, PhosphorImager; higher signal in all three subarrays) [13]
Protein kinase C	the peptides known as protein kinase C substrates (substrate peptides Nos. 3, 23, 27, 41, 43) ... are recognised and phosphorylated by this kinase on the modified glass surface	the peptides known as protein kinase C substrates (substrate peptides Nos. 3, 23, 27, 41, 43) ... are recognised and phosphorylated by this kinase on the modified glass surface	the peptides known as protein kinase C substrates (substrate peptides Nos. 3, 23, 27, 41, 43) ... are recognised and phosphorylated by this kinase on the modified glass surface	the peptides known as protein kinase C substrates (substrate peptides Nos. 3, 23, 27, 41, 43) ... are recognised and phosphorylated by this kinase on the modified glass surface	the peptides known as protein kinase C substrates (substrate peptides Nos. 3, 23, 27, 41, 43) ... are recognised and phosphorylated by this kinase on the modified glass surface	other peptides not described as substrates for protein kinase C are recognised and phosphorylated by this kinase on the modified glass surface	–	–	–	–	–	–	–	–
Protein kinase A	–	–	–	–	with one exception, all the peptides on the modified glass surface are recognised and phosphorylated by protein kinase A which carries two arginine residues in position -2 and -3 (N-terminal) to the serine	–	The peptide 83 is probably not phosphorylated because of the excessive N-terminal localisation of the substrate motif	with one exception, all the peptides on the modified glass surface are recognised and phosphorylated by protein kinase A which carries two arginine residues in position -2 and -3 (N-terminal) to the serine	the linking of the immobilised kinase substrate is tolerated by the protein kinase A	with one exception, all the peptides on the modified glass surface are recognised and phosphorylated by protein kinase A which carries two arginine residues in position -2 and -3 (N-terminal) to the serine	a clear time dependence can be identified for the kinase-mediated incorporation of radioactivity into the substrate amino acid sequence	the linking of the immobilised kinase substrate is tolerated by the protein kinase A	with one exception, all the peptides on the modified glass surface are recognised and phosphorylated by protein kinase A which carries two arginine residues in position -2 and -3 (N-terminal) to the serine	most of the peptides on the modified glass surface are recognised and phosphorylated by protein kinase A which was also found in the experiment carried out in solution
